Key:
[1] = target: T1, Active human KLK5 (human, UniProt Q9Y337 67-293); test: SPR; LEKTI D5 Fab fusion immobilised, human KLK5 injected; reference row, same values as Table 4A
T1 construct: glycosylated; also called Hu KLK5; KLK5 analyte (prepared in house)
Experimental: (§1) Kinetic measurements for the binding of LEKTI D5 Fab fusion protein to human KLK5 were obtained using a Biacore T200 (GE Life Sciences™). To prepare the surface, CM5 chips (GE Life Sciences™) were first activated with a 5-minute injection (30 μL min⁻¹) of a mixture of EDC/NHS (GE Life Sciences™) followed by injection of 100 μg mL⁻¹ LEKTI D5 Fab fusion (UCB) in acetate buffer, pH 5.0 (GE Life Sciences™) to achieve 80 RU immobilised LEKTI D5 Fab fusion on the chip surface. Finally, an injection of 1 M Ethanolamine hydrochloride-NaOH pH 8.5 was utilised to deactivate the surface. Increasing concentrations of human KLK5 from 0.32 to 32 nM in HBS-EP buffer (GE Life Sciences™) were then injected in the single cycle kinetics mode. Values resulting from buffer only injections were subtracted from those obtained for the KLK5 injections and kinetics determined by fitting to a 1:1 binding model in BIAcore evaluation software (GE Life Sciences™)
(§2) As reference, LEKTI D5 Fab fusion protein was immobilised to the chip surface prior to monitoring the interaction with human KLK5.

[2] = target: T1, Active human KLK5; test: SPR, Biacore T200; LEKTI D5 Fab fusion immobilised on CM5 chip, human KLK5 injected 0.32-32 nM, single cycle kinetics, 1:1 model
Experimental: as §1, §2

[3] = target: T1, Active human KLK5; test: SPR; antibody 10236 gL6gH12 captured on anti-human Fc and loaded with human KLK5, LEKTI D5 Fab fusion injected, 1:1 model; KLK5 in complex with 10236 gL6gH12
Experimental: (§3) The experimental conditions described in example 5 were used with the exception that an anti-human Fc chip surface was prepared, and the results are reported in Table 6.

[4] = target: T1, Active human KLK5; test: SPR, Biacore; rabbit antibody 10236 captured on anti-rabbit Fc and saturated with 20 nM human KLK5, LEKTI D5 Fab fusion injected 30 pM-100 nM, 1:1 model; KLK5 in complex with 10236
Experimental: 20 nM of human KLK5 was then injected until the surface reached saturation. LEKTI D5 Fab fusion protein (generated as described in example 1) was then injected at concentrations between 30 pM and 100 nM. Values from buffer only injections were first subtracted from those obtained with the analytes before fitting to a 1:1 binding kinetic model in Biacore™ evaluation software (GE Life Sciences™)

[5] = target: T1, Active human KLK5; test: SPR, Biacore T200; LEKTI D5 Fab fusion immobilised on CM5 chip, human KLK5 injected 0.32-32 nM, single cycle kinetics, 1:1 model; human KLK5 alone, no antibody 10236; LEKTI D5 Fab fusion immobilised on the chip
Experimental: as §1, §2

[6] = target: T1, Active human KLK5; test: SPR; antibody 10236 gL6gH12 captured on anti-human Fc and loaded with human KLK5, LEKTI D5 Fab fusion injected, 1:1 model; KLK5 in complex with 10236 gL6gH12; KLK5 already in complex with antibody 10236 gL6gH12
Experimental: as §3

B1: LEKTI D5 Fab fusion protein (other)
heavy: EVQLLESGGGLVQPGGSLRLSCAVSGIDLSNYAINWVRQAPGKGLEWIGIIWASGTTFYATWAKGRFTISRDNSGGGGSGGGGSREIVKLCSQYQNQAKNGILFCTRENDPIRGPDGKMHGNLCSMCQAYFQAENEEKKKAEARARSGGGGGGGGSKNTVYLQMNSLRAEDTAVYYCARTVPGYSTAPYFDLWGQGTLVTVSSASTKGPSVFPLAPSSKSTSGGTAALGCLVKDYFPEPVTVSWNSGALTSGVHTFPAVLQSSGLYSLSSVVTVPSSSLGTQTYICNVNHKPSNTKVDKKVEPKSCHHHHHHHHHH
light: DIQMTQSPSSVSASVGDRVTITCQSSPSVWSNFLSWYQQKPGKAPKLLIYEASKLTSGVPSRFSGSGSGTDFTLTISSLQPEDFATYYCGGGYSSISDTTFGGGTKVEIKRTVAAPSVFIFPPSDEQLKSGTASVVCLLNNFYPREAKVQWKVDNALQSGNSQESVTEQDSKDSTYSLSSTLTLSKADYEKHKVYACEVTHQGLSSPVTKSFNRGEC
notes: the Fab itself is specific for albumin; also called Human LEKTI D5 Fab fusion protein
- koff [1]: 2.3e-05 s⁻¹
- kon [1]: 570000 M⁻¹ s⁻¹
- koff [2]: 2.3e-05 s⁻¹
- kon [2]: 570000 M⁻¹ s⁻¹
- koff [3]: 0.0016 s⁻¹
- Kd [4]: 120 nM
- koff [4]: 0.0073 s⁻¹
- kon [4]: 59000 M⁻¹ s⁻¹
- Kd [5]: 0.04 nM
- Kd [6]: 540 nM

— patent US20230075753A1 (UCB, published 2023)
